Results reported in patent US11357830B2, “Nano-scale delivery device and uses thereof” (The Regents of the University of California, priority 2016, dated 2022).

Test system: Proteinase-K
Assay: Proteinase-K protection test of Beta Lactamase (BLA) preparations, Nitrocefin Assay (FIGS. 3B, 3C)
Format: biochemical
Conditions: PK overnight, 0.1 mg/ml in 1x PBS, 37° C.; 250 μg/ml nitrocefin, absorbance 486 nm
Experimental: To verify enzyme encapsulation and activity, three separate preparations were incubated with and without Proteinase-K (PK). […] In this example, the three preparations were exposed to Proteinase-K (Thermo Scientific Pierce Proteinase K) enzyme overnight at a concentration of 0.1 mg/ml in 1× phosphate buffered saline (PBS) solution at 37° C. Enzyme activity assay was done on the samples post incubation with PK using a Nitrocefin Assay (BLA hydrolysis of nitrocefin produces a shift of UV absorption inside the visible light spectrum from intact nitrocefin (˜380 nm) to degraded nitrocefin (˜500 nm) allowing visual detection of BLA activity on a macroscopic level). Each reaction was 100 μl in total and contained 250 μg/ml nitrocefin as substrate. Absorbance was measured at 486 nm.

In the case of “Beta Lactamase (BLA) [bare unencapsulated enzyme]”, the “BLA enzyme activity when exposed to Proteinase-K (PK)” value is reported as “loses all activity”.
